Legend:
Assay in all cases: two-hybrid library CCNG1;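 also: natural log of median RNA to DNA barcode read ratio; higher means stronger binding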
4H3364-bA = biological target: T1, 4H3364-bA
T1 chain: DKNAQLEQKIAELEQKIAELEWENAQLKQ

4H2931-bA = biological target: T2, 4H2931-bA
T2 chain: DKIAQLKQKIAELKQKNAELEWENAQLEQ

4H264-bA = biological target: T3, 4H264-bA
T3 chain: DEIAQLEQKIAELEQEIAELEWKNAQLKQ

4H3041-bA = biological target: T4, 4H3041-bA
T4 chain: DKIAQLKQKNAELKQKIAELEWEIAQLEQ

4H730-bA = biological target: T5, 4H730-bA
T5 chain: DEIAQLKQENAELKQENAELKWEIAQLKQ

4H3297-bA = biological target: T6, 4H3297-bA
T6 chain: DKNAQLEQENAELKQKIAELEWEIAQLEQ

4H2760-bA = biological target: T7, 4H2760-bA
T7 chain: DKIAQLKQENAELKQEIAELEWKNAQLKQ

4H932-bA = biological target: T8, 4H932-bA
T8 chain: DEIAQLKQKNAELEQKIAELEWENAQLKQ

4H949-bA = biological target: T9, 4H949-bA
T9 chain: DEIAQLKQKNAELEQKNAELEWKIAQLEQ

4H796-bA = biological target: T10, 4H796-bA
T10 chain: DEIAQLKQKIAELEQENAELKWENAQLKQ

4H3381-bA = biological target: T11, 4H3381-bA
T11 chain: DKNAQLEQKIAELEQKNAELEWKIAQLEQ

4H2518-bA = biological target: T12, 4H2518-bA
T12 chain: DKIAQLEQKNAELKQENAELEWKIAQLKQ

4H349-bA = biological target: T13, 4H349-bA
T13 chain: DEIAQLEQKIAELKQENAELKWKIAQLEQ

4H2585-bA = biological target: T14, 4H2585-bA
T14 chain: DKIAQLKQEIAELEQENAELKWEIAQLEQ

P4A = biological target: T15, P4A
T15 chain: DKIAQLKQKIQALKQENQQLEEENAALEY

O8-bN = biological target: T16, O8-bN
T16 chain: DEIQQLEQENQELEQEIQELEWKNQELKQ

4H2859-bA = biological target: T17, 4H2859-bA
T17 chain: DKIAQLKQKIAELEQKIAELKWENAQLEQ

4H56-bA = biological target: T18, 4H56-bA
T18 chain: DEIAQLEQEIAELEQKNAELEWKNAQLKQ

4H477-bN = biological target: T19, 4H477-bN
T19 chain: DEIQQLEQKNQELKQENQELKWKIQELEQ

4H3277-bN = biological target: T20, 4H3277-bN
T20 chain: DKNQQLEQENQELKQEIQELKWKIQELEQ

4H319-bN = biological target: T21, 4H319-bN
T21 chain: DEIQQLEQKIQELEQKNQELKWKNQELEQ

4H492-bN = biological target: T22, 4H492-bN
T22 chain: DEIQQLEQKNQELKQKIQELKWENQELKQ

4H348-bN = biological target: T23, 4H348-bN
T23 chain: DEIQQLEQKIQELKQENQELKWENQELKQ

O4-bS = biological target: T24, O4-bS
T24 chain: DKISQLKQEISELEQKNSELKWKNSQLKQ

4H2915-bN = biological target: T25, 4H2915-bN
T25 chain: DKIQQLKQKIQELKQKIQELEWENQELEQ

4H2717-bN = biological target: T26, 4H2717-bN
T26 chain: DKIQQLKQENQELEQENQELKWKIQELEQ

4H40-bN = biological target: T27, 4H40-bN
T27 chain: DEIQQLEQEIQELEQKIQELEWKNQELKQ

4H2588-bN = biological target: T28, 4H2588-bN
T28 chain: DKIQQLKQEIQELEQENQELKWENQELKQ

4H741-bN = biological target: T29, 4H741-bN
T29 chain: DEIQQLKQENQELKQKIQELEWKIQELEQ

4H2839-bN = biological target: T30, 4H2839-bN
T30 chain: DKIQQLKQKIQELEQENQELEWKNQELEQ

4H2692-bN = biological target: T31, 4H2692-bN
T31 chain: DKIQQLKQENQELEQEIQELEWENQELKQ

4H2503-bN = biological target: T32, 4H2503-bN
T32 chain: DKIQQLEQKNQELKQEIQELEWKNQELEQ

4H3057-bN = biological target: T33, 4H3057-bN
T33 chain: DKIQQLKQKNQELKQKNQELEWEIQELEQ

4H575-bA = biological target: T34, 4H575-bA
T34 chain: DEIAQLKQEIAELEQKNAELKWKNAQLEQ

4H780-bA = biological target: T35, 4H780-bA
T35 chain: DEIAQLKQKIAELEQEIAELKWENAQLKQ

4H3112-bA = biological target: T36, 4H3112-bA
T36 chain: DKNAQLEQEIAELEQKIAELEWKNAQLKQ

4H797-bA = biological target: T37, 4H797-bA
T37 chain: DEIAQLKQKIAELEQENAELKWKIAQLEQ

4H3926-bA = biological target: T38, 4H3926-bA
T38 chain: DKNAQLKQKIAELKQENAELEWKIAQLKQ

4H2586-bA = biological target: T39, 4H2586-bA
T39 chain: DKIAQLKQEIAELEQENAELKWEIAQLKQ

4H918-bA = biological target: T40, 4H918-bA
T40 chain: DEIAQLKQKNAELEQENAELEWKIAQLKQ

4H3010-bA = biological target: T41, 4H3010-bA
T41 chain: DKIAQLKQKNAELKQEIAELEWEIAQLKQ

4H754-bA = biological target: T42, 4H754-bA
T42 chain: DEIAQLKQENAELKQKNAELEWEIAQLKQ

4H2627-bA = biological target: T43, 4H2627-bA
T43 chain: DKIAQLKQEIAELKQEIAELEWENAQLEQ

4H855-bA = biological target: T44, 4H855-bA
T44 chain: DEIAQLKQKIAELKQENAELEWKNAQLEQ

4H346-bA = biological target: T45, 4H346-bA
T45 chain: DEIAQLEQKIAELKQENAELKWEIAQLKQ

4H953-bA = biological target: T46, 4H953-bA
T46 chain: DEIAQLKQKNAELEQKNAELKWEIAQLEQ

4H2702-bA = biological target: T47, 4H2702-bA
T47 chain: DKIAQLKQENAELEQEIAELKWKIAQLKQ

4H3427-bA = biological target: T48, 4H3427-bA
T48 chain: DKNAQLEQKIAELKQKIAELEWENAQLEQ

4H4073-bA = biological target: T49, 4H4073-bA
T49 chain: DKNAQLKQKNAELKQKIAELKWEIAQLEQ

O2-bN = biological target: T50, O2-bN
T50 chain: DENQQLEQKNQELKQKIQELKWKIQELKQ

4H457-bA = biological target: T51, 4H457-bA
T51 chain: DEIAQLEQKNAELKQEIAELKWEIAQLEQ

4H968-bA = biological target: T52, 4H968-bA
T52 chain: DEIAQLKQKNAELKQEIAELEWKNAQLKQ

4H683-bA = biological target: T53, 4H683-bA
T53 chain: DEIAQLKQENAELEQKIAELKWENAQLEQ

4H2673-bA = biological target: T54, 4H2673-bA
T54 chain: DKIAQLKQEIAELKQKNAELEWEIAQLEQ

4H2444-bA = biological target: T55, 4H2444-bA
T55 chain: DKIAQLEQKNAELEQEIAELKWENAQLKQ

4H492-bA = biological target: T56, 4H492-bA
T56 chain: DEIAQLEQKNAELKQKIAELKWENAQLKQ

4H48-bN = biological target: T57, 4H48-bN
T57 chain: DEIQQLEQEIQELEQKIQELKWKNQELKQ

4H491-bN = biological target: T58, 4H491-bN
T58 chain: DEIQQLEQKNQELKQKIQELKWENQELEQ

Question: DKIAQLEQKNAELKQENAELEWKIAQLKQ [4H2518-bA] was tested. Which interaction score (4H3364-bA) did it give?
Answer: -0.361

Question: What about the interaction score (4H2931-bA) of the same binder?
Answer: -0.288

Question: And the interaction score (4H264-bA)?
Answer: -1

Question: And the interaction score (4H3041-bA)?
Answer: 0.486

Question: And the interaction score (4H730-bA)?
Answer: -0.626

Question: And the interaction score (4H3297-bA)?
Answer: -0.628

Question: And the interaction score (4H2760-bA)?
Answer: -0.635

Question: What about the interaction score (4H932-bA) of the same binder?
Answer: -1.08

Question: And the interaction score (4H949-bA)?
Answer: -0.976

Question: And the interaction score (4H796-bA)?
Answer: -1.33

Question: What about the interaction score (4H3381-bA) of the same binder?
Answer: -0.773

Question: And the interaction score (4H2518-bA)?
Answer: 0.343

Question: And the interaction score (4H349-bA)?
Answer: -0.372

Question: What about the interaction score (4H2585-bA) of the same binder?
Answer: -0.589

Question: What about the interaction score (P4A) of the same binder?
Answer: -1.32

Question: And the interaction score (O8-bN)?
Answer: -2.05

Question: And the interaction score (4H2859-bA)?
Answer: -0.00645

Question: What about the interaction score (4H56-bA) of the same binder?
Answer: -1.52

Question: For DKIQQLEQKNQELKQEIQELEWKNQELEQ [4H2503-bN], which interaction score (4H477-bN) is on record?
Answer: -0.639

Question: And the interaction score (4H3277-bN)?
Answer: 0.0524

Question: And the interaction score (4H319-bN)?
Answer: -0.708

Question: What about the interaction score (4H492-bN) of the same binder?
Answer: 0.186

Question: What about the interaction score (4H348-bN) of the same binder?
Answer: 0.419

Question: What about the interaction score (O4-bS) of the same binder?
Answer: -1.2

Question: What about the interaction score (4H2915-bN) of the same binder?
Answer: -0.299

Question: What about the interaction score (4H2717-bN) of the same binder?
Answer: -1.42

Question: And the interaction score (4H40-bN)?
Answer: -0.263

Question: What about the interaction score (4H2588-bN) of the same binder?
Answer: 0.453

Question: What about the interaction score (4H741-bN) of the same binder?
Answer: -0.327

Question: What about the interaction score (4H2839-bN) of the same binder?
Answer: -0.436

Question: And the interaction score (4H2692-bN)?
Answer: -2.06

Question: And the interaction score (4H2503-bN)?
Answer: -0.645

Question: What about the interaction score (4H3057-bN) of the same binder?
Answer: -0.657

Question: With DKIAQLKQEIAELEQENAELKWEIAQLKQ [4H2586-bA] as the binder, how does the interaction score (4H575-bA) read?
Answer: -0.515

Question: And the interaction score (4H780-bA)?
Answer: -1.17

Question: And the interaction score (4H3112-bA)?
Answer: -1

Question: What about the interaction score (4H797-bA) of the same binder?
Answer: 0.763

Question: What about the interaction score (4H3926-bA) of the same binder?
Answer: 1.9

Question: What about the interaction score (4H2586-bA) of the same binder?
Answer: 1.48

Question: What about the interaction score (4H918-bA) of the same binder?
Answer: -0.499

Question: And the interaction score (4H3010-bA)?
Answer: 1.28

Question: What about the interaction score (4H754-bA) of the same binder?
Answer: -1.06

Question: And the interaction score (4H2627-bA)?
Answer: 0.292

Question: What about the interaction score (4H855-bA) of the same binder?
Answer: 1.54

Question: What about the interaction score (4H346-bA) of the same binder?
Answer: 0.976

Question: What about the interaction score (4H953-bA) of the same binder?
Answer: 1.17

Question: And the interaction score (4H2702-bA)?
Answer: 0.531

Question: And the interaction score (4H3427-bA)?
Answer: -0.911

Question: And the interaction score (4H4073-bA)?
Answer: 0.255

Question: What about the interaction score (O2-bN) of the same binder?
Answer: -0.327

Question: What about the interaction score (4H457-bA) of the same binder?
Answer: 0.765

Question: What about the interaction score (4H968-bA) of the same binder?
Answer: -1.91

Question: What about the interaction score (4H683-bA) of the same binder?
Answer: 0.537

Question: What about the interaction score (4H2673-bA) of the same binder?
Answer: 0.53

Question: For DKIAQLEQKNAELEQEIAELKWENAQLKQ [4H2444-bA], which interaction score (4H3364-bA) is on record?
Answer: -0.57

Question: What about the interaction score (4H2444-bA) of the same binder?
Answer: 1.3

Question: What about the interaction score (4H2931-bA) of the same binder?
Answer: 0.114

Question: What about the interaction score (4H264-bA) of the same binder?
Answer: 0.179

Question: What about the interaction score (4H3041-bA) of the same binder?
Answer: 0.922

Question: What about the interaction score (4H730-bA) of the same binder?
Answer: -0.297

Question: And the interaction score (4H492-bA)?
Answer: 1.66

Question: What about the interaction score (4H3297-bA) of the same binder?
Answer: 0.252

Question: What about the interaction score (4H2760-bA) of the same binder?
Answer: 1.15

Question: What about the interaction score (4H932-bA) of the same binder?
Answer: -1.36

Question: What about the interaction score (4H949-bA) of the same binder?
Answer: -0.993

Question: And the interaction score (4H796-bA)?
Answer: -0.412

Question: And the interaction score (4H3381-bA)?
Answer: -0.537

Question: And the interaction score (4H2518-bA)?
Answer: -0.678

Question: What about the interaction score (4H349-bA) of the same binder?
Answer: -0.457

Question: What about the interaction score (4H2585-bA) of the same binder?
Answer: 0.675

Question: And the interaction score (4H2859-bA)?
Answer: -0.0526

Question: What about the interaction score (4H56-bA) of the same binder?
Answer: -1.91

Question: How did the interaction score (4H48-bN) turn out when DEIQQLEQEIQELEQKIQELKWKNQELKQ [4H48-bN] was run?
Answer: 1.04

Question: And the interaction score (4H491-bN)?
Answer: -0.799
